Data: patent US20240352438A1, “MEANS AND METHODS FOR DETOXIFYING OCHRATOXIN A” (DSM Austria GmbH, priority 2021, published 2024)

B1: 305 (protein)
chain: MTTRTRILTAFLSLLAANACAADAAPAAPHTVVLRAARMFDGASGKLVDHPQLTIVGNKIVRIAQGDKAEVPAGAEVVDLGDATLLPGFIDAHVHLSGQSSDNWYGDFFDNMMRFPAEQALYGAYYARITLEAGFTSVRDVGSTDWVALGLRNAIDAGKVPGPRMLVSNYAVGSTGGHADQDPVPPHKLPLMGPLQGVCNGPEECRAAVRYQIKYGANVIKFMPSGGVLSLSDPVDAPELSQDEMNAVIGESHAWGRKVAAHAHGDKAAKMAVAAGVDSIEHGSFIEDDTLRAMKAKNVYLVPTISAIAHVEEKIGTFPPVIAEKGRAAAAHLRQTFRHAVQIGVPIALGTDAGVGAHGSNAREFRYMVENGLTPAQALLAGTANAARLLGTFDRVGTLEAGKLADVVAVPGNPIADITVTERPLFVMKDGVVVRRDAVR
modifications: exemplary polypeptide
B2: 311 (protein)
chain: MTTRTRILTAFLSLLAANACAADAAPAAPHTVVLRAARMFDGASGKLVDHPQLTIVGNKIVRIAQGDKAEVPAGAEVVDLGDATLLPGFIDAHVHLSGQSSDNWYGDFFDNMMRFPAEQALYGAYYARITLEAGFTSVRDVGSTDWVALGLRNAIDAGKVPGPRMLVSNYAVGSTGGHADQDPIPPHKLPLAGPLQGVCNGPEECRAAVRYQIKYGANVIKFMPSGGVLSLSDPVDAPELSQDEMNAVIGESHAWGRKVAAHAHGDKAAKMAVAAGVDSIEHGSFIEDDTLRAMKAKNVYLVPTISAVAHVEEKIGTFPPVIAEKGRAALAHLRQTFRHAVQIGVPIALGTDAGVGAHGSNAREFRYMVENGLTPAQALLAGTANAARLLGTFDRVGTLEAGKLADVVAVPGNPIADITVTERPLFVMKDGVVVRRDAVR
modifications: exemplary polypeptide
B3: 306 (protein)
chain: MTTRTRILTAFLSLLAANACAADAAPAAPHTVVLRAARMFDGASGKLVDHPQLTIVGNKIVRIAQGDKAEVPAGAEVVDLGDATLLPGFIDAHVHLSGQSSDNWYGDFFDNMMRFPAEQALYGAYYARITLEAGFTSVRDVGSTDWVALGLRNAIDAGKVPGPRMLVSNYAVGSTGGHADQDPIPPHKLPLAGPLQGVCNGPEECRAAVRYQIKYGANVIKFMPSGGVLSLSDPVDAPELSQDEMNAVIGESHAWGRKVAAHAHGDKAAKMAVAAGVDSIEHGSFIEDDTLRAMKAKNVYLVPTISAAAHVEEKIGTFPPVIAEKGRAALAHLRQTFRHAVQIGVPIALGTDAGVGAHGSNAREFRYMVENGLTPAQALLAGTANAARLLGTFDRVGTLEAGKLADVVAVPGNPIADITVTERPLFVMKDGVVVRRDAVR
modifications: exemplary polypeptide
B4: 309 (protein)
chain: MTTRTRILTAFLSLLAANACAADAAPAAPHTVVLRAARMFDGASGKLVDHPQLTIVGNKIVRIAQGDKAEVPAGAEVVDLGDATLLPGFIDAHVHLSGQSSDNWYGDFFDNMMRFPAEQALYGAYYARITLEAGFTSVRDVGSTDWVALGLRNAIDAGKVPGPRMLVSNYAVGSTGGHADQDPIPPHKLPLAGPLQGVCNGPEECRAAVRYQIKYGANVIKFMPSGGVLSLSDPVDAPELSQDEMNAVIGESHAWGRKVAAHAHGDKAAKMAVAAGVDSIEHGSFIEDDTLRAMKAKNVYLVPTISAAAHVEEKIGTFPPVIAEKGRAAAAHIRQTFRHAVQIGVPIALGTDAGVGAHGSNAREFRYMVENGLTPAQALLAGTANAARLLGTFDRVGTLEAGKLADVVAVPGNPIADITVTERPLFVMKDGVVVRRDAVR
modifications: exemplary polypeptide
B5: 307 (protein)
chain: MTTRTRILTAFLSLLAANACAADAAPAAPHTVVLRAARMFDGASGKLVDHPQLTIVGNKIVRIAQGDKAEVPAGAEVVDLGDATLLPGFIDAHVHLSGQSSDNWYGDFFDNMMRFPAEQALYGAYYARITLEAGFTSVRDVGSTDWVALGLRNAIDAGKVPGPRMLVSNYAVGSTGGHADQDPIPPHKLPLAGPLQGVCNGPEECRAAVRYQIKYGANVIKFMPSGGVLSLSDPVDAPELSQDEMNAVIGESHAWGRKVAAHAHGDKAAKMAVAAGVDSIEHGSFIEDDTLRAMKAKNVYLVPTISAAAHVEEKIGTFPPVIAEKGRAAMAHLRQTFRHAVQIGVPIALGTDAGVGAHGSNAREFRYMVENGLTPAQALLAGTANAARLLGTFDRVGTLEAGKLADVVAVPGNPIADITVTERPLFVMKDGVVVRRDAVR
modifications: exemplary polypeptide
B6: 313 (protein)
chain: MTTRTRILTAFLSLLAANACAADAAPAAPHTVVLRAARMFDGASGKLVDHPQLTIVGNKIVRIAQGDKAEVPAGAEVVDLGDATLLPGFIDAHVHLSGQSSDNWYGDFFDNMMRFPAEQALYGAYYARITLEAGFTSVRDVGSTDWVALGLRNAIDAGKVPGPRMLVSNYAVGSTGGHADQDPIPPHKLPLAGPLQGVCNGPEECRAAVRYQIKYGANVIKFMPSGGVLSLSDPVDAPELSQDEMNAVIGESHAWGRKVAAHAHGDKAAKMAVAAGVDSIEHGSFIEDDTLRAMKAKNVYLVPTISAVAHVEEKIGTFPPVIAEKGRAAVAHLRQTFRHAVQIGVPIALGTDAGVGAHGSNAREFRYMVENGLTPAQALLAGTANAARLLGTFDRVGTLEAGKLADVVAVPGNPIADITVTERPLFVMKDGVVVRRDAVR
modifications: exemplary polypeptide
B7: 308 (protein)
chain: MTTRTRILTAFLSLLAANACAADAAPAAPHTVVLRAARMFDGASGKLVDHPQLTIVGNKIVRIAQGDKAEVPAGAEVVDLGDATLLPGFIDAHVHLSGQSSDNWYGDFFDNMMRFPAEQALYGAYYARITLEAGFTSVRDVGSTDWVALGLRNAIDAGKVPGPRMLVSNYAVGSTGGHADQDPIPPHKLPLAGPLQGVCNGPEECRAAVRYQIKYGANVIKFMPSGGVLSLSDPVDAPELSQDEMNAVIGESHAWGRKVAAHAHGDKAAKMAVAAGVDSIEHGSFIEDDTLRAMKAKNVYLVPTISAAAHVEEKIGTFPPVIAEKGRAAVAHLRQTFRHAVQIGVPIALGTDAGVGAHGSNAREFRYMVENGLTPAQALLAGTANAARLLGTFDRVGTLEAGKLADVVAVPGNPIADITVTERPLFVMKDGVVVRRDAVR
modifications: exemplary polypeptide
B8: 312 (protein)
chain: MTTRTRILTAFLSLLAANACAADAAPAAPHTVVLRAARMFDGASGKLVDHPQLTIVGNKIVRIAQGDKAEVPAGAEVVDLGDATLLPGFIDAHVHLSGQSSDNWYGDFFDNMMRFPAEQALYGAYYARITLEAGFTSVRDVGSTDWVALGLRNAIDAGKVPGPRMLVSNYAVGSTGGHADQDPIPPHKLPLAGPLQGVCNGPEECRAAVRYQIKYGANVIKFMPSGGVLSLSDPVDAPELSQDEMNAVIGESHAWGRKVAAHAHGDKAAKMAVAAGVDSIEHGSFIEDDTLRAMKAKNVYLVPTISAVAHVEEKIGTFPPVIAEKGRAAMAHLRQTFRHAVQIGVPIALGTDAGVGAHGSNAREFRYMVENGLTPAQALLAGTANAARLLGTFDRVGTLEAGKLADVVAVPGNPIADITVTERPLFVMKDGVVVRRDAVR
modifications: exemplary polypeptide
B9: 315 (protein)
chain: MTTRTRILTAFLSLLAANACAADAAPAAPHTVVLRAARMFDGASGKLVDHPQLTIVGNKIVRIAQGDKAEVPAGAEVVDLGDATLLPGFIDAHVHLSGQSSDNWYGDFFDNMMRFPAEQALYGAYYARITLEAGFTSVRDVGSTDWVALGLRNAIDAGKVPGPRMLVSNYAVGSTGGHADQDPIPPHKLPLAGPLQGVCNGPEECRAAVRYQIKYGANVIKFMPSGGVLSLSDPVDAPELSQDEMNAVIGESHAWGRKVAAHAHGDKAAKMAVAAGVDSIEHGSFIEDDTLRAMKAKNVYLVPTISAVAHVEEKIGTFPPVIAEKGRAAAAHMRQTFRHAVQIGVPIALGTDAGVGAHGSNAREFRYMVENGLTPAQALLAGTANAARLLGTFDRVGTLEAGKLADVVAVPGNPIADITVTERPLFVMKDGVVVRRDAVR
modifications: exemplary polypeptide
B10: 310 (protein)
chain: MTTRTRILTAFLSLLAANACAADAAPAAPHTVVLRAARMFDGASGKLVDHPQLTIVGNKIVRIAQGDKAEVPAGAEVVDLGDATLLPGFIDAHVHLSGQSSDNWYGDFFDNMMRFPAEQALYGAYYARITLEAGFTSVRDVGSTDWVALGLRNAIDAGKVPGPRMLVSNYAVGSTGGHADQDPIPPHKLPLAGPLQGVCNGPEECRAAVRYQIKYGANVIKFMPSGGVLSLSDPVDAPELSQDEMNAVIGESHAWGRKVAAHAHGDKAAKMAVAAGVDSIEHGSFIEDDTLRAMKAKNVYLVPTISAAAHVEEKIGTFPPVIAEKGRAAAAHMRQTFRHAVQIGVPIALGTDAGVGAHGSNAREFRYMVENGLTPAQALLAGTANAARLLGTFDRVGTLEAGKLADVVAVPGNPIADITVTERPLFVMKDGVVVRRDAVR
modifications: exemplary polypeptide

Columns and labels:
[1] = Enzymatic activity comparison: activity remaining after 65° C. for 10 min at pH 6.0, relative to SEQ ID NO: 1; type: physicochemical
Protocol: To compare the temperature behavior and thermostability of selected enzymes to one another, enzyme was incubated at 65° C. for 10 min at pH 6.0. The enzymatic activity remaining after incubation was compared to the remaining activity of the enzyme of SEQ ID NO: 1 after incubation, the latter being set to 100%, see Table 16.

[2] = OTA detoxification activity assay (specific activity, fluorescence reduction ex/em 390/450 nm); type: biochemical; settings: SEQ ID NO: 1 = 100%
Summary of the method: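 Recombinant enzyme preparation with 200 ng/mL OTA in 100 mM sodium phosphate, at pH 6.0 and pH 7.5, 37° C. Degradation followed as the fall in fluorescence at ex/em 390/450 nm. Specific activity taken from the initial linear slope; one unit degrades 1 μmol OTA per min at a starting OTA of […].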

Molecule	Enzymatic activity remaining after incubation, compared to SEQ ID NO: 1 (set to 100%) [1] [%]	Specific OTA detoxification activities in % compared to the enzyme of SEQ ID NO: 1, pH 6.0 [2] [%]	Specific OTA detoxification activities in % compared to the enzyme of SEQ ID NO: 1, pH 7.5 [2] [%]
B1	35	36	46
B2	30	89	48
B3	36	114	74
B4	28	106	48
B5	35	138	84
B6	20	84	54
B7	39	171	117
B8	17	81	64
B9	29	38	56
B10	39	78	91
